Assay results taken from article PMC6805484, “The RNA-binding ubiquitin ligase MKRN1 functions in ribosome-associated quality control of poly(A) translation”.

Target: His-MKRN1 wt;His-PABPC1 (human (Homo sapiens);human (Homo …, UniProt Q9UHC7;P11940 1-482;1-636, |))
Assay: pull-down; PABPC1 strongly increases MKRN1 recovery; Binding: 50 mM Tris-HCl pH 7.4, 500 mM KCl, 12.5 mM MgCl2, 1% Triton X-100, 1 h, 4 °C; wash: 200 mM NaCl, 10 mM MgCl2, 50 mM HEPES pH 7.4, 0.5% Igepal CA630, 1% Triton X-100
Settings: protein: recombinant;recombinant; tags: N-His6;N-His6; copies: 1;1; label: 3' biotin

Chain of His-MKRN1 wt;His-PABPC1 (human (Homo sapiens);human (Q9UHC7 whole entry, chain 1 of 2): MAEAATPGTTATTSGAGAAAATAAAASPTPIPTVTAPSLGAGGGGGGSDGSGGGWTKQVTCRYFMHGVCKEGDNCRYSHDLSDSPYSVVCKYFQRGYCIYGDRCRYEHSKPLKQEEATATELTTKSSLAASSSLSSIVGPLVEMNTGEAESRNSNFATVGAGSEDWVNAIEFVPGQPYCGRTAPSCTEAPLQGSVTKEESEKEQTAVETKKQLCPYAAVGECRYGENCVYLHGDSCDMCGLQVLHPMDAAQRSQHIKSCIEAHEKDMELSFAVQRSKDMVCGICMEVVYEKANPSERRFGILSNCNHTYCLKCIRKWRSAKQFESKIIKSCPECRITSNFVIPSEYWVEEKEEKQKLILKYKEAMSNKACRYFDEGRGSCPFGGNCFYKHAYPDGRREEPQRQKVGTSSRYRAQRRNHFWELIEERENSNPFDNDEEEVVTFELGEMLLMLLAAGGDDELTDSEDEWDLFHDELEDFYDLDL
Chain of His-MKRN1 wt;His-PABPC1 (human (Homo sapiens);human (P11940 whole entry, chain 2 of 2): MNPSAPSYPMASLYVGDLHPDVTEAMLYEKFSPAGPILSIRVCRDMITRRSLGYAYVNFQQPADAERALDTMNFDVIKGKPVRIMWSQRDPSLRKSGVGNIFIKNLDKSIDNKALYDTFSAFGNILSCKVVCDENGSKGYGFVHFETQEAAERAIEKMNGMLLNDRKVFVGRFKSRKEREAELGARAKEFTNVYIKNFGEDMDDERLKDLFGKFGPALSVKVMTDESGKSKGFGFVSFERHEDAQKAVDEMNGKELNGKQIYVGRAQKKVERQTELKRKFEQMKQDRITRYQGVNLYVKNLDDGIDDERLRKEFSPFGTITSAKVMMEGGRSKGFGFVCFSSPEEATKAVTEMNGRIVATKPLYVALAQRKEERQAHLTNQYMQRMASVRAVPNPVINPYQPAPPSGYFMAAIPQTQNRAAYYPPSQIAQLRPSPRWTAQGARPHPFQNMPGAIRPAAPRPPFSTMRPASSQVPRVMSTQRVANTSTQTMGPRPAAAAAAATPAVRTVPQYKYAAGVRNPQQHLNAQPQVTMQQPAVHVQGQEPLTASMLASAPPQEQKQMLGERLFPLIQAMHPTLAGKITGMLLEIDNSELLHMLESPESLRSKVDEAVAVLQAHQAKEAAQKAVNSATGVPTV

GGAAAUAAACUGUAGAGUUCCAAAAAAAAAAAAAAAAAAAAA (ssRNA) [A20 RNA (SRSF4 3' UTR end + A20)]: binds.
